First the molecules themselves.
B1: Zinc finger protein ZIC 2, residues 250 to 295; numbered along this chain, O95409 (parent)
chain: QCIKQELICKWIDPEQLSNPKKSCNKTFSTMHELVTHVSVEHVGGP

± gives the uncertainty stated by the source.

In this series the parent is B1. In words: abundance fitness (aPCA) (normalised: wild type 0, dead -1); higher = more abundant; growth selection in yeast, the domain comes from the species named. Particulars: Homo sapiens.
Consider QCIKQELICKWIDPMQLSNPKKSCNKTFSTMHELVTHVSVEHVGGP, for which the abundance fitness is -0.079 ± 0.1.

Regarding QCIKQELICKWIDPHQLSNPKKSCNKTFSTMHELVTHVSVEHVGGP, the abundance fitness was -0.233 ± 0.11.

As to QCIKQELICKWIDPYQLSNPKKSCNKTFSTMHELVTHVSVEHVGGP, the abundance fitness was -0.14 ± 0.12.

Regarding QCIKQELICKWIDPRQLSNPKKSCNKTFSTMHELVTHVSVEHVGGP, the abundance fitness was -0.217 ± 0.085.

Turning to QCIKQELICKWIDPAQLSNPKKSCNKTFSTMHELVTHVSVEHVGGP, the abundance fitness came out at 0.077 ± 0.088.

In the case of QCIKQELICKWIDPDQLSNPKKSCNKTFSTMHELVTHVSVEHVGGP, the abundance fitness was -0.254 ± 0.11.

For QCIKQELICKWIDPTQLSNPKKSCNKTFSTMHELVTHVSVEHVGGP, the abundance fitness is -0.31 ± 0.1.

In the case of QCIKQELICKWIDPIQLSNPKKSCNKTFSTMHELVTHVSVEHVGGP, the abundance fitness was found to be 0.051 ± 0.11.

For QCIKQELICKWIDPKQLSNPKKSCNKTFSTMHELVTHVSVEHVGGP, the abundance fitness stood at 0.077 ± 0.11.

Take QCIKQELICKWIDPQQLSNPKKSCNKTFSTMHELVTHVSVEHVGGP: the abundance fitness was -0.406 ± 0.13.

In the case of QCIKQELICKWIDPVQLSNPKKSCNKTFSTMHELVTHVSVEHVGGP, the abundance fitness was -0.137 ± 0.087.

For the variant QCIKQELICKWIDPPQLSNPKKSCNKTFSTMHELVTHVSVEHVGGP, the abundance fitness was -0.388 ± 0.11.

For QCIKQELICKWIDPCQLSNPKKSCNKTFSTMHELVTHVSVEHVGGP, the abundance fitness was -0.132 ± 0.11.

For the variant QCIKQELICKWIDPFQLSNPKKSCNKTFSTMHELVTHVSVEHVGGP, the abundance fitness was -0.23 ± 0.11.

Turning to QCIKQELICKWIDPWQLSNPKKSCNKTFSTMHELVTHVSVEHVGGP, the abundance fitness is -0.206 ± 0.094.

With QCIKQELICKWIDPSQLSNPKKSCNKTFSTMHELVTHVSVEHVGGP, the abundance fitness is 0.018 ± 0.088.

In the case of QCIKQELICKWIDPGQLSNPKKSCNKTFSTMHELVTHVSVEHVGGP, the abundance fitness is -0.145 ± 0.085.

For the variant QCIKQELICKWIDPLQLSNPKKSCNKTFSTMHELVTHVSVEHVGGP, the abundance fitness is 0.104 ± 0.087.

With QCIKQELICKWIDPEQNSNPKKSCNKTFSTMHELVTHVSVEHVGGP, the abundance fitness amounted to 0.124 ± 0.13.

For the variant QCIKQELICKWIDPEQSSNPKKSCNKTFSTMHELVTHVSVEHVGGP, the abundance fitness was -0.111 ± 0.09.

Regarding QCIKQELICKWIDPEQQSNPKKSCNKTFSTMHELVTHVSVEHVGGP, the abundance fitness is -0.173 ± 0.1.

For QCIKQELICKWIDPEQPSNPKKSCNKTFSTMHELVTHVSVEHVGGP, the abundance fitness was 0.101 ± 0.097.

Turning to QCIKQELICKWIDPEQVSNPKKSCNKTFSTMHELVTHVSVEHVGGP, the abundance fitness was determined as 0.11 ± 0.087.

Take QCIKQELICKWIDPEQGSNPKKSCNKTFSTMHELVTHVSVEHVGGP: the abundance fitness was -0.363 ± 0.086.

Regarding QCIKQELICKWIDPEQYSNPKKSCNKTFSTMHELVTHVSVEHVGGP, the abundance fitness was -0.564 ± 0.15.

For QCIKQELICKWIDPEQTSNPKKSCNKTFSTMHELVTHVSVEHVGGP, the abundance fitness was 0.035 ± 0.097.

Consider QCIKQELICKWIDPEQASNPKKSCNKTFSTMHELVTHVSVEHVGGP, for which the abundance fitness was 0.084 ± 0.092.

Turning to QCIKQELICKWIDPEQISNPKKSCNKTFSTMHELVTHVSVEHVGGP, the abundance fitness amounted to 0.067 ± 0.14.

On to QCIKQELICKWIDPEQRSNPKKSCNKTFSTMHELVTHVSVEHVGGP, for which the abundance fitness was -0.304 ± 0.086.

Turning to QCIKQELICKWIDPEQCSNPKKSCNKTFSTMHELVTHVSVEHVGGP, the abundance fitness is -0.245 ± 0.12.

As to QCIKQELICKWIDPEQHSNPKKSCNKTFSTMHELVTHVSVEHVGGP, the abundance fitness is -0.662 ± 0.15.

For the variant QCIKQELICKWIDPEQFSNPKKSCNKTFSTMHELVTHVSVEHVGGP, the abundance fitness came to 0.143 ± 0.11.

In the case of QCIKQELICKWIDPEQKSNPKKSCNKTFSTMHELVTHVSVEHVGGP, the abundance fitness was -0.071 ± 0.1.

With QCIKQELICKWIDPEQDSNPKKSCNKTFSTMHELVTHVSVEHVGGP, the abundance fitness is 0.176 ± 0.12.

Take QCIKQELICKWIDPEQWSNPKKSCNKTFSTMHELVTHVSVEHVGGP: the abundance fitness was -0.623 ± 0.093.

Turning to QCIKQELICKWIDPEQESNPKKSCNKTFSTMHELVTHVSVEHVGGP, the abundance fitness was 0.306 ± 0.093.

As for QCIKQELICKWIDSEQLSNPKKSCNKTFSTMHELVTHVSVEHVGGP, the abundance fitness is -0.28 ± 0.092.

Turning to QCIKQELICKWIDREQLSNPKKSCNKTFSTMHELVTHVSVEHVGGP, the abundance fitness is -0.2 ± 0.087.

As for QCIKQELICKWIDMEQLSNPKKSCNKTFSTMHELVTHVSVEHVGGP, the abundance fitness is -0.334 ± 0.12.

In the case of QCIKQELICKWIDKEQLSNPKKSCNKTFSTMHELVTHVSVEHVGGP, the abundance fitness was -0.885 ± 0.12.

On to QCIKQELICKWIDAEQLSNPKKSCNKTFSTMHELVTHVSVEHVGGP, for which the abundance fitness is -0.316 ± 0.094.

As for QCIKQELICKWIDQEQLSNPKKSCNKTFSTMHELVTHVSVEHVGGP, the abundance fitness was -0.449 ± 0.12.

Consider QCIKQELICKWIDCEQLSNPKKSCNKTFSTMHELVTHVSVEHVGGP, for which the abundance fitness is -0.33 ± 0.11.

As to QCIKQELICKWIDDEQLSNPKKSCNKTFSTMHELVTHVSVEHVGGP, the abundance fitness was -0.65 ± 0.13.

Take QCIKQELICKWIDFEQLSNPKKSCNKTFSTMHELVTHVSVEHVGGP: the abundance fitness was -0.788 ± 0.15.

For QCIKQELICKWIDNEQLSNPKKSCNKTFSTMHELVTHVSVEHVGGP, the abundance fitness was -0.123 ± 0.13.

In the case of QCIKQELICKWIDTEQLSNPKKSCNKTFSTMHELVTHVSVEHVGGP, the abundance fitness is -0.377 ± 0.11.

Regarding QCIKQELICKWIDEEQLSNPKKSCNKTFSTMHELVTHVSVEHVGGP, the abundance fitness is -0.216 ± 0.11.

Regarding QCIKQELICKWIDYEQLSNPKKSCNKTFSTMHELVTHVSVEHVGGP, the abundance fitness is -0.499 ± 0.13.

As for QCIKQELICKWIDLEQLSNPKKSCNKTFSTMHELVTHVSVEHVGGP, the abundance fitness is -0.434 ± 0.09.

For the variant QCIKQELICKWIDHEQLSNPKKSCNKTFSTMHELVTHVSVEHVGGP, the abundance fitness was -0.199 ± 0.13.

As for QCIKQELICKWIDWEQLSNPKKSCNKTFSTMHELVTHVSVEHVGGP, the abundance fitness was -0.484 ± 0.096.

Take QCIKQELICKWIDGEQLSNPKKSCNKTFSTMHELVTHVSVEHVGGP: the abundance fitness is -0.237 ± 0.085.

Regarding QCIKQELICKWIDIEQLSNPKKSCNKTFSTMHELVTHVSVEHVGGP, the abundance fitness is -0.975 ± 0.2.

With QCIKQELICKWIDVEQLSNPKKSCNKTFSTMHELVTHVSVEHVGGP, the abundance fitness is -0.369 ± 0.095.

QCIKQELICKWQDPEQLSNPKKSCNKTFSTMHELVTHVSVEHVGGP: the abundance fitness was -0.144 ± 0.11.

The values are drawn from the Human Domainome abundance scans (Beltran et al. 2025).
